Legend:
Bio-huHER2/Erb2 = Bio-huHER2/Erb2 (human (hu), UniProt P04626 23-652, biotinylated (bio-), site not stated); experiment: SPR (Biacore 8K+), immobilized antigen, 25.0-1.6 nM
CD38 on Daudi cells = molecular target: T1, CD38 on Daudi cells (UniProt P28907 1-300, limits assumed); experiment: titration binding FACS on Daudi cells
T1 construct: whole, on cells
Experimental: Subsequently the EC50 of antibodies samples was determined by titration binding FACS on Daudi cells (for CD38 binding evaluation), on THP-1 cells (for CD33 binding evaluation), on A-431 cells (for EGFR binding evaluation), on MKN-45 cells (for CEACAMS binding evaluation) and on HEK293T (for CD276 binding evaluation). Jurkat E6-1 or HEK293T cell lines were used as negative control, as applicable.

bio-huCD38 [1] = molecular target: T2, bio-huCD38 (human (hu), UniProt P28907 43-300, biotinylated (bio-), site not stated); experiment: SPR, antigen immobilized, antibody as analyte 25-1.6 nM
Experimental: (§1) SPR analysis was performed on a Biocore 8K+, using a CFJB0944 CM5 sensor chip for immobilization and a SPR running buffer 1×HBS-EP+pH 7.4 (Cytiva, cat no. BR100669) according to the manufacturer's instructions.
(§2) In the second part of this example, antigen was immobilized on the chip and antibody dissolved in the SPR running buffer flowed over the chip.

bio-huCD38 [2] = molecular target: T2, bio-huCD38; experiment: SPR, antibody captured on chip, antigen as analyte 200-6.25 nM
Experimental: as §1
In the first part of this example the antibody was immobilized on the chip and the antigen dissolved in the SPR running buffer flowed over the chip.

bio-huCD38 [3] = molecular target: T2, bio-huCD38; experiment: SPR, antigen immobilized, antibody as analyte 100-6.25 nM
Experimental: as §1, §2

bio-huCD38 [4] = molecular target: T2, bio-huCD38; experiment: SPR, antigen immobilized, antibody as analyte 50-3.1 nM
Experimental: as §1, §2

bio-huCD38 [5] = molecular target: T2, bio-huCD38; experiment: SPR (Biacore 8K+), immobilized antigen, 25.0-1.6 nM
bio-huCD38 [6] = molecular target: T2, bio-huCD38; experiment: SPR (Biacore 8K+), immobilized antigen

B1: HER2-DOTA(Fab)-p53 (bispecific antibody)
light: QVQLQESGGGSVQAGGSLKLTCAASGYIFNSCGMGWYRQSPGRERELVSRISGDGDTWHKESVKGRFTISQDNVKKTLYLQMNSLKPEDTAVYFCAVCYNLETYWGQGTQVTVSSGGGSGGGSGGGSGGGGSQAVVTQESALTTSPGETVTLTCRSSTGAVTTSNYANWVQEKPDHLFTGLIGGNNNRPPGVPARFSGSLIGDKAALTIAGTQTEDEAIYFCALWYSNHWVFGGGTRLTVLGQPKSSPSVTLFPPSSEELETNKATLVCTITDFYPGVVTVDWKVDGTPVTQGMETTQPSKQSNNKYMASSYLTLTARAWERHSSYSCQVTHEGHTVEKSLSPAECS
heavy: HVKLQESGPGLVQPSQSLSLTCTVSGFSLTDYGVHWVRQSPGKGLEWLGVIWSGGGTAYNTALISRLNIYRDNSKNQVFLEMNSLQAEDTAMYYCARRGSYPYNYFDAWGRGTTVTVSSASTKGPSVFPLAPSSKSTSGGTAALGCLVKDYFPEPVTVSWNSGALTSGVHTFPAVLQSSGLYSLSSVVTVPSSSLGTQTYICNVNHKPSNTKVDKKVEPKSCGGGGSGGGGSKPLDGEYFTLQIRGRERFEMFRELNEALELKDAQAGKEPGGSGGAPHHHHHH
notes: Tetramerizes through p53 depending on concentration; also called YM00018; molecule 2
Kd (Bio-huHER2/Erb2): 0.0588 nM
koff (Bio-huHER2/Erb2): 2.25e-05 s⁻¹
kon (Bio-huHER2/Erb2): 383000 M⁻¹ s⁻¹

B2: CD38-DOTAM(Fab)-p53 (bispecific antibody)
light: DVQLQESGGGLVQAGGSLRLSCTGSGRTFRNYPMAWFRQAPGKEREFVAGITWVGASTLYADFAKGRFTISRDNAKNTVYLQMNSLKPEDTAVYSCAAGRGIVAGRIPAEYADWGQGTQVTVSSGGGGSGGGGSGGGGSGGGGGSDIQMTQSPSSLSASVGDRVTITCQSSHSVYSDNDLAWYQQKPGKAPKLLIYQASKLASGVPSRFSGSGSGTDFTLTISSLQPEDFATYYCLGGYDDESDTYGFGGGTKVEIKRTVAAPSVFIFPPSDEQLKSGTASVVCLLNNFYPREAKVQWKVDNALQSGNSQESVTEQDSKDSTYSLSSTLTLSKADYEKHKVYACEVTHQGLSSPVTKSFNRGEC
heavy: VTLKESGPVLVKPTETLTLTCTVSGFSLSTYSMSWIRQPPGKALEWLGFIGSRGDTYYASWAKGRLTISKDTSKSQVVLTMTNMDPVDTATYYCARERDPYGGGAYPPHLWGRGTLVTVSSASTKGPSVFPLAPSSKSTSGGTAALGCLVKDYFPEPVTVSWNSGALTSGVHTFPAVLQSSGLYSLSSVVTVPSSSLGTQTYICNVNHKPSNTKVDKKVEPKSCGGGGSGGGGSKPLDGEYFTLQIRGRERFEMFRELNEALELKDAQAGKEPGGS
notes: Tetramerizes through p53 depending on concentration; also called YM00006; molecule 5
EC50 (CD38 on Daudi cells): 0.59 nM
Kd (bio-huCD38 [1]): 0.936 nM
koff (bio-huCD38 [1]): 1.63e-05 s⁻¹
kon (bio-huCD38 [1]): 17400 M⁻¹ s⁻¹
Kd (bio-huCD38 [2]): 2.09 nM
koff (bio-huCD38 [2]): 7.86e-05 s⁻¹
kon (bio-huCD38 [2]): 37600 M⁻¹ s⁻¹

B3: CD38-DOTAM(fab)-dp53 (bispecific antibody)
light: DVQLQESGGGLVQAGGSLRLSCTGSGRTFRNYPMAWFRQAPGKEREFVAGITWVGASTLYADFAKGRFTISRDNAKNTVYLQMNSLKPEDTAVYSCAAGRGIVAGRIPAEYADWGQGTQVTVSSGGGGSGGGGSGGGGSGGGGGSDIQMTQSPSSLSASVGDRVTITCQSSHSVYSDNDLAWYQQKPGKAPKLLIYQASKLASGVPSRFSGSGSGTDFTLTISSLQPEDFATYYCLGGYDDESDTYGFGGGTKVEIKRTVAAPSVFIFPPSDEQLKSGTASVVCLLNNFYPREAKVQWKVDNALQSGNSQESVTEQDSKDSTYSLSSTLTLSKADYEKHKVYACEVTHQGLSSPVTKSFNRGEC
heavy: VTLKESGPVLVKPTETLTLTCTVSGFSLSTYSMSWIRQPPGKALEWLGFIGSRGDTYYASWAKGRLTISKDTSKSQVVLTMTNMDPVDTATYYCARERDPYGGGAYPPHLWGRGTLVTVSSASTKGPSVFPLAPSSKSTSGGTAALGCLVKDYFPEPVTVSWNSGALTSGVHTFPAVLQSSGLYSLSSVVTVPSSSLGTQTYICNVNHKPSNTKVDKKVEPKSCG
notes: No tetramerization domain; also called YM00007; molecule 6
EC50 (CD38 on Daudi cells): 0.51 nM
Kd (bio-huCD38 [1]): 0.132 nM
koff (bio-huCD38 [1]): 0.000189 s⁻¹
kon (bio-huCD38 [1]): 1.43e+06 M⁻¹ s⁻¹
Kd (bio-huCD38 [2]): 12.7 nM
koff (bio-huCD38 [2]): 0.000214 s⁻¹
kon (bio-huCD38 [2]): 16800 M⁻¹ s⁻¹

B4: CD38-DOTA(fab)-p53_C-Term-LC (bispecific antibody)
light: QAVVIQESALTTPPGETVTLTCGSSTGAVTASNYANWVQEKPDHLFTGLIGGHNNRPPGVPARFSGSLIGDKAALTIAGTQTEDEAIYFCALWYSDHWVIGGGTRLTVLGQPKANPTVTLFPPSSEELQANKATLVCLISDFYPGAVTVAWKADGSPVKAGVETTKPSKQSNNKYAASSYLSLTPEQWKSHRSYSCQVTHEGSTVEKTVAPTECSGGGGSGGGGSGGGGSGGGGGSDVQLQESGGGLVQAGGSLRLSCTGSGRTFRNYPMAWFRQAPGKEREFVAGITWVGASTLYADFAKGRFTISRDNAKNTVYLQMNSLKPEDTAVYSCAAGRGIVAGRIPAEYADWGQGTQVTVSS
heavy: HVKLQESGPGLVQPSQSLSLTCTVSGFSLTDYGVHWVRQSPGKGLEWLGVIWSGGGTAYNTALISRLNIYRDNSKNQVFLEMNSLQAEDTAMYYCARRGSYPYNYFDAWGRGTTVTVSSASTKGPSVFPLAPSSKSTSGGTAALGCLVKDYFPEPVTVSWNSGALTSGVHTFPAVLQSSGLYSLSSVVTVPSSSLGTQTYICNVNHKPSNTKVDKKVEPKSCGGGGSGGGGSKPLDGEYFTLQIRGRERFEMFRELNEALELKDAQAGKEPGGS
notes: VHH at the C-terminus of the light chain; also called YM00013; molecule 12
Kd (bio-huCD38 [3]): 0.313 nM
koff (bio-huCD38 [3]): 1.3e-05 s⁻¹
kon (bio-huCD38 [3]): 41500 M⁻¹ s⁻¹
EC50 (CD38 on Daudi cells): 3.75 nM
Kd (bio-huCD38 [2]): 1.28 nM
koff (bio-huCD38 [2]): 0.000103 s⁻¹
kon (bio-huCD38 [2]): 80700 M⁻¹ s⁻¹

B5: CD38-DOTA(fab)-p53_C-Term-HC (bispecific antibody)
light: QAVVIQESALTTPPGETVTLTCGSSTGAVTASNYANWVQEKPDHLFTGLIGGHNNRPPGVPARFSGSLIGDKAALTIAGTQTEDEAIYFCALWYSDHWVIGGGTRLTVLGQPKANPTVTLFPPSSEELQANKATLVCLISDFYPGAVTVAWKADGSPVKAGVETTKPSKQSNNKYAASSYLSLTPEQWKSHRSYSCQVTHEGSTVEKTVAPTECS
heavy: HVKLQESGPGLVQPSQSLSLTCTVSGFSLTDYGVHWVRQSPGKGLEWLGVIWSGGGTAYNTALISRLNIYRDNSKNQVFLEMNSLQAEDTAMYYCARRGSYPYNYFDAWGRGTTVTVSSASTKGPSVFPLAPSSKSTSGGTAALGCLVKDYFPEPVTVSWNSGALTSGVHTFPAVLQSSGLYSLSSVVTVPSSSLGTQTYICNVNHKPSNTKVDKKVEPKSCGGGGSGGGGSGGGGSGGGGGSDVQLQESGGGLVQAGGSLRLSCTGSGRTFRNYPMAWFRQAPGKEREFVAGITWVGASTLYADFAKGRFTISRDNAKNTVYLQMNSLKPEDTAVYSCAAGRGIVAGRIPAEYADWGQGTQVTVSSGGGGSGGGGSKPLDGEYFTLQIRGRERFEMFRELNEALELKDAQAGKEPGGS
notes: VHH C-terminal of the Fab heavy chain, before p53; also called YM00014; molecule 13
EC50 (CD38 on Daudi cells): 2.36 nM
Kd (bio-huCD38 [2]): 1.33 nM
koff (bio-huCD38 [2]): 7.59e-05 s⁻¹
kon (bio-huCD38 [2]): 57000 M⁻¹ s⁻¹
Kd (bio-huCD38 [4]): 0.163 nM
koff (bio-huCD38 [4]): 1.52e-05 s⁻¹
kon (bio-huCD38 [4]): 93300 M⁻¹ s⁻¹

B6: CD38-DOTA(Fab)-p53 (bispecific antibody)
light: DVQLQESGGGLVQAGGSLRLSCTGSGRTFRNYPMAWFRQAPGKEREFVAGITWVGASTLYADFAKGRFTISRDNAKNTVYLQMNSLKPEDTAVYSCAAGRGIVAGRIPAEYADWGQGTQVTVSSGGGGSGGGGSGGGGSGGGGGSQAVVIQESALTTPPGETVTLTCGSSTGAVTASNYANWVQEKPDHLFTGLIGGHNNRPPGVPARFSGSLIGDKAALTIAGTQTEDEAIYFCALWYSDHWVIGGGTRLTVLGQPKANPTVTLFPPSSEELQANKATLVCLISDFYPGAVTVAWKADGSPVKAGVETTKPSKQSNNKYAASSYLSLTPEQWKSHRSYSCQVTHEGSTVEKTVAPTECS
heavy: HVKLQESGPGLVQPSQSLSLTCTVSGFSLTDYGVHWVRQSPGKGLEWLGVIWSGGGTAYNTALISRLNIYRDNSKNQVFLEMNSLQAEDTAMYYCARRGSYPYNYFDAWGRGTTVTVSSASTKGPSVFPLAPSSKSTSGGTAALGCLVKDYFPEPVTVSWNSGALTSGVHTFPAVLQSSGLYSLSSVVTVPSSSLGTQTYICNVNHKPSNTKVDKKVEPKSCGGGGSGGGGSKPLDGEYFTLQIRGRERFEMFRELNEALELKDAQAGKEPGGSGGAPHHHHHH
notes: VHH-Fab fusion of two polypeptide chains; Tetramerizes through p53 depending on concentration; also called YM00016; molecule 1
EC50 (CD38 on Daudi cells): 0.65 nM
Kd (bio-huCD38 [5]): 0.0257 nM
koff (bio-huCD38 [5]): 1.41e-05 s⁻¹
kon (bio-huCD38 [5]): 550000 M⁻¹ s⁻¹

B7: CD38-DOTA(fab)-dp53 (bispecific antibody)
light: DVQLQESGGGLVQAGGSLRLSCTGSGRTFRNYPMAWFRQAPGKEREFVAGITWVGASTLYADFAKGRFTISRDNAKNTVYLQMNSLKPEDTAVYSCAAGRGIVAGRIPAEYADWGQGTQVTVSSGGGGSGGGGSGGGGSGGGGGSQAVVIQESALTTPPGETVTLTCGSSTGAVTASNYANWVQEKPDHLFTGLIGGHNNRPPGVPARFSGSLIGDKAALTIAGTQTEDEAIYFCALWYSDHWVIGGGTRLTVLGQPKANPTVTLFPPSSEELQANKATLVCLISDFYPGAVTVAWKADGSPVKAGVETTKPSKQSNNKYAASSYLSLTPEQWKSHRSYSCQVTHEGSTVEKTVAPTECS
heavy: HVKLQESGPGLVQPSQSLSLTCTVSGFSLTDYGVHWVRQSPGKGLEWLGVIWSGGGTAYNTALISRLNIYRDNSKNQVFLEMNSLQAEDTAMYYCARRGSYPYNYFDAWGRGTTVTVSSASTKGPSVFPLAPSSKSTSGGTAALGCLVKDYFPEPVTVSWNSGALTSGVHTFPAVLQSSGLYSLSSVVTVPSSSLGTQTYICNVNHKPSNTKVDKKVEPKSCGGHHHHHH
notes: No tetramerization domain; also called YM00017; molecule 15
EC50 (CD38 on Daudi cells): 1.07 nM
Kd (bio-huCD38 [6]): 0.316 nM
koff (bio-huCD38 [6]): 0.000148 s⁻¹
kon (bio-huCD38 [6]): 470000 M⁻¹ s⁻¹

Reference: US20260166185A1 (Y MABS THERAPEUTICS, published 2026)
